Results from patent US7022666.

Biological target: LIF receptor/gp130 heterodimer (rat) (UniProt O70535)
Assay: cell-based or functional assay

Sequence of UniProt O70535 (O70535 44-1093, chain 1 of 2): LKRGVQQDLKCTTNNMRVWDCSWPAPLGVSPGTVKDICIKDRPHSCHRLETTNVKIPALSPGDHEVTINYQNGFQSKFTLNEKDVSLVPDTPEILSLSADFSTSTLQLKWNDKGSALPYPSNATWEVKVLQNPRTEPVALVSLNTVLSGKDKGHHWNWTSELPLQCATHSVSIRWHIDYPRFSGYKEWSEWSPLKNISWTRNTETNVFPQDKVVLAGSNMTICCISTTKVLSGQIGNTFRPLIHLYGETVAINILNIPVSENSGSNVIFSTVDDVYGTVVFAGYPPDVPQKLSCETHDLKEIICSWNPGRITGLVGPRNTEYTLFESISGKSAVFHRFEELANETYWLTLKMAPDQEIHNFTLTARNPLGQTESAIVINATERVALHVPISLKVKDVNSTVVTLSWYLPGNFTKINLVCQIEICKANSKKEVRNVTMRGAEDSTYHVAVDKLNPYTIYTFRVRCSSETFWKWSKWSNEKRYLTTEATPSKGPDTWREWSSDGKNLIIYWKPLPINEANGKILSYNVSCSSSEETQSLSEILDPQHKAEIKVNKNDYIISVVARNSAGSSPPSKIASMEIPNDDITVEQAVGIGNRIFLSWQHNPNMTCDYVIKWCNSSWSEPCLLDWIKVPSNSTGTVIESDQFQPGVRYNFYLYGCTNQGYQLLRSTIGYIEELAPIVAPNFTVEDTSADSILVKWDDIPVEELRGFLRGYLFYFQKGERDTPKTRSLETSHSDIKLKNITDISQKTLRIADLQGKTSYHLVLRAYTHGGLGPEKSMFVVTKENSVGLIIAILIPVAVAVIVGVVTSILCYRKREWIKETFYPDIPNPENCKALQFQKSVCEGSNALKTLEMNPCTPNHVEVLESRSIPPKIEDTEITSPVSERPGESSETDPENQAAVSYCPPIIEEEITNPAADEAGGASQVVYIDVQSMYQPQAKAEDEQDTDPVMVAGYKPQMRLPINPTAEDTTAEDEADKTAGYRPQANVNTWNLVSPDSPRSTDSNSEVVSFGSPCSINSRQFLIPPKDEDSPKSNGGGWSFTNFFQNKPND
Sequence of UniProt O70535 (P40190 23-918, chain 2 of 2, further chain): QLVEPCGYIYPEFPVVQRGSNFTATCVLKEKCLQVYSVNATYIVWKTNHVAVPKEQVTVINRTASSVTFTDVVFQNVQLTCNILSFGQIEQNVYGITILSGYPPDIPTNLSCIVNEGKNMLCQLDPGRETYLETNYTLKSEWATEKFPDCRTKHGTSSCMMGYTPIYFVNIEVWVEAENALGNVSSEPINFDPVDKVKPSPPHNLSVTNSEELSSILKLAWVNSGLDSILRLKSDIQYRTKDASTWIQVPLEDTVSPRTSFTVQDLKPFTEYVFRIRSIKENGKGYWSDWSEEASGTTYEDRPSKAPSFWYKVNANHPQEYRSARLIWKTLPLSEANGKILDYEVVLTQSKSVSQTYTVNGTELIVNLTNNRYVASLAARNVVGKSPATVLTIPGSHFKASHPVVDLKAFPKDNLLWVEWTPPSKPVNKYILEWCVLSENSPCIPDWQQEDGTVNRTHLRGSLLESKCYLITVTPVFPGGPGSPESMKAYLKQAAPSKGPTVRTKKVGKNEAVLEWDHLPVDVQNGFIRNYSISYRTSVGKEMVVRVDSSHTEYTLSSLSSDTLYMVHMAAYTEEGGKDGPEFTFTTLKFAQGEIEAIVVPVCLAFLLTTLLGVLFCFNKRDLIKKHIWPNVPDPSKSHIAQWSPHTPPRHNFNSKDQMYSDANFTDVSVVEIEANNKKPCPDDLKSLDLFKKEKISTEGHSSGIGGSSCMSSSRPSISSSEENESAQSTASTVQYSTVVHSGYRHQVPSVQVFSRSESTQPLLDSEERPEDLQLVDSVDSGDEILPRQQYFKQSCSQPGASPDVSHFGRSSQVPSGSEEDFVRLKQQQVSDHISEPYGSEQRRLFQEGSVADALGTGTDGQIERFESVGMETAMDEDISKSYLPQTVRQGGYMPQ

conversion of metanephric mesenchyme into epithelia (lowest active dose): 0.2 nM
Substance: recombinant leukemia inhibitory factor (ligand)
